Test results reported in the Human Domainome abundance scans (Beltran et al. 2025).

B1: Cell division cycle and apoptosis regulator protein 1, residues 625 to 674; numbered along this chain, Q8IX12 (parent)
chain: ISTPTHWSKLDPKTMKVNDLRKELESRALSSKGLKSQLIARLTKQLKVEE
B2: Tripartite motif-containing protein 6, residues 93 to 134; numbered along this chain, Q9C030 (parent)
chain: KAVLCADHGEKLQLFCQEDGKVICWLCERSQEHRGHHTFLVE

Variants of: B1
Test: abundance fitness (aPCA) (normalised: wild type 0, dead -1); higher = more abundant; growth selection in yeast, the domain comes from the species named
Settings: Homo sapiens

Abundance fitness: each site, then its substitutions
L38: M -0.049 | R -0.583 | Y -0.832 | Q -0.366 | G -0.603 | S -0.592 | T -0.63 | N -0.666 | P -0.634 | K -0.324 | H -0.628
R41: M -0.356 | L -0.331 | G -0.556 | T -0.237 | N -0.235 | I -0.416 | D -0.434 | K -0.202 | H -0.374 | Q -0.466 | W -0.877 | F -0.814 | A -0.377 | V -0.417 | P -0.728 | E -0.212 | S -0.271
A40: M 0.034 | L -0.095 | I -0.186 | T -0.108 | S -0.028 | R 0.019 | F 0.032 | C -0.07 | D -0.05 | P -0.12 | G 0.03 | K -0.349 | Y 0.219 | N -0.066 | H 0.1
K47: Y -0.261 | L -0.151 | Q -0.196 | F -0.489 | N -0.106 | D -0.204 | R -0.083 | V -0.168 | E -0.23 | C -0.265 | H -0.212 | G -0.128 | W -0.334 | I -0.179 | M -0.266 | A -0.146 | P -0.806 | T -0.131
I39: G -0.286 | F -0.518 | P -0.366 | Y -0.279 | A -0.145 | C -0.059 | R -0.013 | V 0.022 | L -0.183 | K 0.016 | Q -0.102 | M -0.1 | S -0.205 | W -0.573 | N -0.26 | D -0.266 | T -0.049 | E -0.102
E50: D -0.495 | T -0.535 | W -0.173 | Q -0.064 | N -0.332 | A -0.21 | I 0.068 | R -0.27 | V -0.231 | M -0.641 | H 0.003 | G -0.228
V48: G -0.154 | S -0.059 | I 0.054 | K 0.009 | T -0.073 | E -0.023 | N 0.031 | D -0.114 | A -0.117 | H -0.106 | L -0.06 | R -0.02 | P -0.795 | Y -0.207 | W -0.178 | F 0.018 | Q -0.06 | M -0.092 | C -0.113
E49: I -0.943 | R -0.935 | Y -1.21 | D -0.41 | P -0.86 | G -0.919 | N -0.909 | W -1 | A -0.867 | C -0.606 | L -0.983 | M -0.937 | V -0.906 | Q -0.592 | K -1.19
L46: A -0.549 | D -0.705 | F -0.471 | R -0.554 | N -0.744 | P -0.822 | W -0.805 | M -0.023 | Y -0.617 | Q -0.335 | I -0.146 | G -0.787 | K -0.347 | H -0.827 | S -0.676 | V -0.258 | T -0.467
Q45: P -0.872 | F -0.237 | R 0.01 | T -0.093 | E -0.118 | K -0.015 | H -0.284 | G -0.364 | C -0.042 | L -0.46 | D -0.596 | W -0.244 | A -0.045 | M -0.216 | V -0.211 | S -0.144 | I -0.187
L42: A -0.662 | N -0.515 | G -0.516 | I -0.231 | K -0.677 | Y -0.845 | M -0.206 | D -0.493 | S -0.563 | Q -0.505 | T -0.585 | H -0.509 | C -0.795 | F -0.56 | E -0.547 | R -0.733 | P -0.472 | V -0.634 | W -0.929
K44: I -0.296 | N -0.091 | D -0.167 | C -0.366 | Y -0.229 | H -0.246 | W -0.338 | T -0.128 | A -0.161 | S -0.19 | P -0.652 | L -0.289 | E -0.151 | V -0.31 | M -0.355
T43: I -0.05 | H -0.105 | R 0.103 | C -0.071 | K 0.148 | P -0.721 | L -0.043 | E -0.117 | N -0.021 | Y -0.281 | S -0.048 | W -0.202 | Q -0.068 | D -0.097 | A -0.01 | M -0.094 | V -0.057

Variants of: B2
Test: as above
Settings: Homo sapiens

Abundance fitness of substitutions, site by site:
V3: I -0.135 | Y -0.153 | M 0.141 | T 0.005 | K 0.046 | C 0.098 | P -0.485 | G 0.127 | R -0.273 | H -0.349 | Q -0.306 | S -0.003 | A -0.007 | L -0.437 | E -0.067 | W -0.353
A2: C -0.167 | Y -0.153 | T 0.136 | S 0.045 | I -0.018 | L -0.013 | D -0.031 | E 0.195 | K 0.133 | G 0.198 | R 0.067 | P -0.071 | V 0.065 | M 0.264 | W -0.04 | N 0.066
A6: T -0.242 | L -0.215 | W -0.48 | H -0.43 | P -0.056 | F -0.158 | Q -0.087 | G -0.196 | N -0.306 | I -0.321 | S 0.055 | E -0.244 | C -0.156 | K -0.011 | Y -0.19 | R -0.035 | D -0.11
C5: T -0.954 | Y -0.602 | R -0.978 | E -0.615 | F -0.871 | V -0.839 | A -1.06 | W -1.06 | Q -0.812 | L -0.999 | G -0.664 | H -0.768 | N -0.922 | K -0.789 | M -0.769 | D -0.807 | P -0.777
H8: F -1.09 | G -0.691 | L -1.08 | I -0.74 | K -0.419 | P -0.819 | C -0.584 | E -0.518 | A -0.706 | N -0.807
K1: C -0.698 | S -0.142 | N -0.296 | R -0.296 | Q -0.32 | D 0.292 | A -0.273 | M -0.156 | Y -0.01 | W -0.722 | G -0.193 | V -0.191 | F -0.36 | T -0.255 | E 0 | L -0.439
L4: R -0.082 | E -0.126 | M 0.195 | T -0.066 | N 0.224 | W -0.199 | D -0.223 | V 0.011 | A -0.165 | C -0.189 | F 0.141 | K -0.148 | G -0.175 | Y 0.047 | Q -0.272 | S -0.217
D7: K -0.007 | W -0.173 | P -0.297 | F -0.38 | I -0.034 | E 0.048 | M 0.091 | G -0.291 | A 0.095 | L 0.132 | T 0.165 | N -0.085 | C 0.055 | R -0.06 | S 0.006 | Q 0.172
